2 molecules from PMC10951424, “Fibroblast-specific PRMT5 deficiency suppresses cardiac fibrosis and left ventricular dysfunction in male mice” (Nature Communications, 2024) can be followed below.

This assay addresses T1, His-tag fusion human PRMT5 protein (human, UniProt O14744 1-637).
T1 construct: Protein arginine methyltransferase 5 (PRMT5), human; also called His-tagged PRMT5; his-tagged PRMT5; source: E. coli BL21DE3, recombinant; not shown: His-tag, N-terminal, kept
Kind of assay: pull-down; GST fusion proteins immobilized on glutathione-Sepharose 4B beads, mixed with His-tag fusion human PRMT5; 4 °C, 2 h; beads washed four times; western blot with anti-His-tag mAb. The following applies: both partners purified. Background: A western blot detects proteins with antibodies after separation by electrophoresis.

T1 sequence (O14744 whole entry, the tested form may be a part): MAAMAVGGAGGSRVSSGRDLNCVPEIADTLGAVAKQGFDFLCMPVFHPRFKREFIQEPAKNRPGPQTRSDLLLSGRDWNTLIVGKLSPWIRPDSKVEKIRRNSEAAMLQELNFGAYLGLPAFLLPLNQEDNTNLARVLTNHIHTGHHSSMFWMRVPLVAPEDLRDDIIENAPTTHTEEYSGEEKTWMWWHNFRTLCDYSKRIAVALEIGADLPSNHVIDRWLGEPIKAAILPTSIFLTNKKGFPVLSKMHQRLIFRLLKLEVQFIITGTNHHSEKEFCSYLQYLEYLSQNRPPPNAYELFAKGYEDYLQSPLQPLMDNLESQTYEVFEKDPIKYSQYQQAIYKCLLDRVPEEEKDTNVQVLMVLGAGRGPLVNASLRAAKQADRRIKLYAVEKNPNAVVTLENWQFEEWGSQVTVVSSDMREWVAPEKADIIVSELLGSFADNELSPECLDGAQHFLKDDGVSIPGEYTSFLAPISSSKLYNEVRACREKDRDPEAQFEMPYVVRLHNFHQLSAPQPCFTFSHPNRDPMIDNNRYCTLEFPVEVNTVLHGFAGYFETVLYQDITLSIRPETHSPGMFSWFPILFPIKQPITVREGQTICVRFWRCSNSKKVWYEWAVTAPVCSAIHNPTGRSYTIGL

B1: recombinant full-length GST-Smad3 (natural protein, human, UniProt P84022 1-425, looked up)
chain: MSSILPFTPPIVKRLLGWKKGEQNGQEEKWCEKAVKSLVKKLKKTGQLDELEKAITTQNVNTKCITIPRSLDGRLQVSHRKGLPHVIYCRLWRWPDLHSHHELRAMELCEFAFNMKKDEVCVNPYHYQRVETPVLPPVLVPRHTEIPAEFPPLDDYSHSIPENTNFPAGIEPQSNIPETPPPGYLSEDGETSDHQMNHSMDAGSPNLSPNPMSPAHNNLDLQPVTYCEPAFWCSISYYELNQRVGETFHASQPSMTVDGFTDPSNSERFCLGLLSNVNRNAAVELTRRHIGRGVRLYYIGGEVFAECLSDSAIFVQSPNCNQRYGWHPATVCKIPPGCNLKIFNNQEFAALLAQSVNQGFEAVYQLTRMCTIRMSFVKGWGAEYRRQTVTSTPCWIELHLNGPLQWLDKVLTQMGSPSIRCSSVS
notes: Smad3, full length; the only Smad3 cDNA named is the pCMV Flag hSmad3 vector (human); The methods tell the cloning into pGEX6P1 only for the deletion mutants; the full-length GST construct is not described; also called GST-tagged Smad3; source: E. coli BL21DE3, recombinant, immobilized on glutathione-Sepharose 4B beads
In the case of B1, the binding result is recorded as “binds”.

B2: GST-Smad3 deletion mutant aa 225-425 (domain or fragment)
chain: not shown
notes: PCR product cloned into pGEX6P1 (BamHI, XhoI); cDNA from the pCMV Flag hSmad3 vector (human); source: E. coli BL21DE3, recombinant, immobilized on glutathione-Sepharose 4B beads
Consider B2, for which the binding result is “binds”.
